Test results taken from patent publication US20230212635.

B1: serum purified Complement Factor I (Complement Technology, A138) (protein)
chain: KVTYTSQEDLVEKKCLAKKYTHLSCDKVFCQPWQRCIEGTCVCKLPYQCPKNGTAVCATNRRSFPTYCQQKSLECLHPGTKFLNNGTCTAEGKFSVSLKHGNTDSEGIVEVKLVDQDKTMFICKSSWSMREANVACLDLGFQQGADTQRRFKLSDLSINSTECLHVHCRGLETSLAECTFTKRRTMGYQDFADVVCYTQKADSPMDDFFQCVNGKYISQMKACDGINDCGDQSDELCCKACQGKGFHCKSGVCIPSQYQCNGEVDCITGEDEVGCAGFASVTQEETEILTADMDAERRRIKSLLPKLSCGVKNRMHIRRKRIVGGKRAQLGDLPWQVAIKDASGITCGGIYIGGCWILTAAHCLRASKTHRYQIWTTVVDWIHPDLKRIVIEYVDRIIFHENYNAGTYQNDIALIEMKKDGNKKDCELPRSIPACVPWSPYLFQPNDTCIVSGWGREKDNERVFSLQWGEVKLISNCSKFYGNRFYEKEMECAGTYDGSIDACKGDSGGPLVCMDANNVTYVWGVVSWGENCGKPEFPGVYTKVANYFDWISYHVGRPFISQYNV

Tests used:
[1] = biological target: C3b (UniProt P01024)
[2] = biological target: C3b, P01024
C3b, P01024, sequence (P01024 whole entry, looked up): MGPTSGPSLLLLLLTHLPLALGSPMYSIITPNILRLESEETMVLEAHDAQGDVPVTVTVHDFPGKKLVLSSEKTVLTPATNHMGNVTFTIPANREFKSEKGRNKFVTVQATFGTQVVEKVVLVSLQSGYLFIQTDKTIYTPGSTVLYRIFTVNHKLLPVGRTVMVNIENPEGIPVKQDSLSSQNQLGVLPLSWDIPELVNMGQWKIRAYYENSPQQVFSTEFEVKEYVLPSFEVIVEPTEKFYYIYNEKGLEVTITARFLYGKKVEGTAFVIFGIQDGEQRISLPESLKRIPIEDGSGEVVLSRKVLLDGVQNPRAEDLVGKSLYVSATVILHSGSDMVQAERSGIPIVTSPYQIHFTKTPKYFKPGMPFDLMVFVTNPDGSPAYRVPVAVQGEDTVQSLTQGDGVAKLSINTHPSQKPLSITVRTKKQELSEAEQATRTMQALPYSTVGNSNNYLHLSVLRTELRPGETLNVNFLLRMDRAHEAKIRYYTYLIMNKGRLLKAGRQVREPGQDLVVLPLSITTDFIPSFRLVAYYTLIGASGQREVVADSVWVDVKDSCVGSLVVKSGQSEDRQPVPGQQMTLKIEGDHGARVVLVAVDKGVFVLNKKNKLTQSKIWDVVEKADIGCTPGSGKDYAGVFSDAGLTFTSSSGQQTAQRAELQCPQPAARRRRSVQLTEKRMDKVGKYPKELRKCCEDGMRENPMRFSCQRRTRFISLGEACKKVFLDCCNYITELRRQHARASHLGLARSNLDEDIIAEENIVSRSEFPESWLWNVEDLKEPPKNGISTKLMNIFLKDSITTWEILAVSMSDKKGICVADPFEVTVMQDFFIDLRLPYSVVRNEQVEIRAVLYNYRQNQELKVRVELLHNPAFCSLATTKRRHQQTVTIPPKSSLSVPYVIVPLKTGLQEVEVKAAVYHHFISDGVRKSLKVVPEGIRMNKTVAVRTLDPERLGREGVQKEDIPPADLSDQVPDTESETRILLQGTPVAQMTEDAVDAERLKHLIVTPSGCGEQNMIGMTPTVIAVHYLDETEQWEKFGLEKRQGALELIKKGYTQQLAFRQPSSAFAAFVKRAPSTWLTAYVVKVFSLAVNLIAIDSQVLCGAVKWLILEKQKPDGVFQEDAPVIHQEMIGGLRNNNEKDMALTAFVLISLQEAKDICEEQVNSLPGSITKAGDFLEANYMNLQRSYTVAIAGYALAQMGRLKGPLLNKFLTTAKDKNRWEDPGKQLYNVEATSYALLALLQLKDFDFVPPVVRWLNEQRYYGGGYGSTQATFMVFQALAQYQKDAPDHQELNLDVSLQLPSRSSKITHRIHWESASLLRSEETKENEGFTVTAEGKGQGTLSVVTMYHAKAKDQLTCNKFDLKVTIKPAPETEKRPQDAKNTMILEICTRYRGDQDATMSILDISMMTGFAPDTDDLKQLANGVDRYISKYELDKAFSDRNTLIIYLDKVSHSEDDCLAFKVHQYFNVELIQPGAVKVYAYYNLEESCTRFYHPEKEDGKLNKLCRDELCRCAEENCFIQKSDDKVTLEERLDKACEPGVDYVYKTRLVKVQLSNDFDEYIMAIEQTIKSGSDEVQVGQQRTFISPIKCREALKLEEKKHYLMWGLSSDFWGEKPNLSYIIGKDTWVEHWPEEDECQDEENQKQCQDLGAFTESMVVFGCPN

Molecule | fluid phase cofactor activity (C3b cleavage with Factor H, SDS-PAGE, Coomassie) [1] | fluid phase cofactor activity (C3b cleavage with Factor H, SDS-PAGE, Coomassie) [2]
recombinant precursor Complement Factor I (single chain with intact RRKR linker) | by 45 minutes 10ng of precursor CFI showed no demonstrable activity | –
recombinant mature Complement Factor I from the pDEF-CFI vector in CHO-K1 cells (first Mono S peak) | At 30 minutes the lowest concentration of fully processed factor I (6.25ng) (right) had cleaved C3b as evidenced by decrease in C3α -110 band and increase in C3α-68,-46, and -43 bands | –
recombinant mature Complement Factor I produced from the Furin-IRES-CFI vector (VB171219-1127wqz) in HEK293T cells | Enzymatic activity of IRES CFI and serum CFI was demonstrated to be equivilant. | –
B1 | – | Enzymatic activity of IRES CFI and serum CFI was demonstrated to be equivilant.
